Test in all cases: BLI (Octet), binder on AHC sensor, 100 nM human antigen, 1:1 fit
Experiment [1] deals with T1, human HER3 (human, UniProt P21860 20-643).
T1 construct: Soluble antigen in Octet; bought; also called human HER3 (Acro ER3-H5223)

Experiment [2] addresses T2, human CD3 (human, UniProt P07766 23-126; P04234 22-105).
T2 construct: also called His-tagged human CD3; human CD3 (Acro CDD-H52W1)

Experiment [3] has as its target T3, human EGFR (human, UniProt P00533 25-645, limits assumed).
T3 construct: Soluble antigen in Octet; construct not described

B1: SI-75X3 (other)
chain 1: EIVLTQSPSTLSVSPGERATFSCRASQSIGTNIHWYQQKPGKPPRLLIKYASESISGIPDRFSGSGSGTEFTLTISSVQSEDFAVYYCQQNNNWPTTFGPGTKLTVLGGGGSGGGGSGGGGSGGGGSQVQLQQSGPGLVKPSETLSITCTVSGFSLTNYGVHWIRQAPGKGLEWLGVIWSGGNTDYNTPFTSRFTITKDNSKNQVYFKLRSVRADDTAIYYCARALTYYDYEFAYWGQGTLVTVSSGGGGSGGGGSEVQLVESGGGLVQPGGSLRLSCAASGFTISTNAMSWVRQAPGKGLEWIGVITGRDITYYASWAKGRFTISRDNSKNTLYLQMNSLRAEDTAVYYCARDGGSSAITSNNIWGQGTLVTVSSASTKGPSVFPLAPSSKSTSGGTAALGCLVKDYFPEPVTVSWNSGALTSGVHTFPAVLQSSGLYSLSSVVTVPSSSLGTQTYICNVNHKPSNTKVDKRVEPKSCDKTHTCPPCPAPEAAGGPSVFLFPPKPKDTLMISRTPEVTCVVVDVSHEDPEVKFNWYVDGVEVHNAKTKPREEQYNSTYRVVSVLTVLHQDWLNGKEYKCAVSNKALPAPIEKTISKAKGQPREPQVYTLPPSRDELTKNQVSLSCAVKGFYPSDIAVEWESNGQPENNYKTTPPVLDSDGSFFLVSKLTVDKSRWQQGNVFSCSVMHEALHNHYTQKSLSLSPG
chain 2: QSALTQPASVSGSPGQSITISCTGTSSDVGGYNFVSWYQQHPGKAPKLMIYDVSDRPSGVSDRFSGSKSGNTASLIISGLQADDEADYYCSSYGSSSTHVIFGGGTKVTVLGGGGSGGGGSGGGGSGGGGSQVQLQESGGGLVKPGGSLSLSCAASGFTFSSYWMSWVRQAPGKGLEWVANINRDGSASYYVDSVKGRFTISRDDAKNSLYLQMNSLRAEDTAVYYCARDRGVGYFDLWGRGTLVTVSSGGGGSGGGGSDVVMTQSPSTLSASVGDRVTINCQASESISSWLAWYQQKPGKAPKLLIYEASKLASGVPSRFSGSGSGTEFTLTISSLQPDDFATYYCQGYFYFISRTYVNSFGGGTKVEIKRTVAAPSVFIFPPSDEQLKSGTASVVCLLNNFYPREAKVQWKVDNALQSGNSQESVTEQDSKDSTYSLSSTLTLSKADYEKHKVYACEVTHQGLSSPVTKSFNRGECGGDKTHTCPPCPAPEAAGGPSVFLFPPKPKDTLMISRTPEVTCVVVDVSHEDPEVKFNWYVDGVEVHNAKTKPREEQYNSTYRVVSVLTVLHQDWLNGKEYKCAVSNKALPAPIEKTISKAKGQPREPQVYTLPPSRDELTKNQVSLWCLVKGFYPSDIAVEWESNGQPENNYKTTPPVLDSDGSFFLYSKLTVDKSRWQQGNVFSCSVMHEALHNRFTQKSLSLSPG
notes: tri-miniGNC; D1 αEGFR, D2 αHER3, D3 αCD3 (Fab); also called tri-miniGNC (SI-75X3)
In the case of B1, the Kd was 146 nM in experiment [1], 18.2 nM in experiment [2] and 8.47 nM in experiment [3].

B2: SI-75X2 (bispecific antibody, human IgG1, kappa, L234A L235A)
chain 1: EVQLVESGGGLVQPGGSLRLSCAASGFTISTNAMSWVRQAPGKGLEWIGVITGRDITYYASWAKGRFTISRDNSKNTLYLQMNSLRAEDTAVYYCARDGGSSAITSNNIWGQGTLVTVSSASTKGPSVFPLAPSSKSTSGGTAALGCLVKDYFPEPVTVSWNSGALTSGVHTFPAVLQSSGLYSLSSVVTVPSSSLGTQTYICNVNHKPSNTKVDKRVEPKSCDKTHTCPPCPAPEAAGGPSVFLFPPKPKDTLMISRTPEVTCVVVDVSHEDPEVKFNWYVDGVEVHNAKTKPREEQYNSTYRVVSVLTVLHQDWLNGKEYKCAVSNKALPAPIEKTISKAKGQPREPQVYTLPPSRDELTKNQVSLSCAVKGFYPSDIAVEWESNGQPENNYKTTPPVLDSDGSFFLVSKLTVDKSRWQQGNVFSCSVMHEALHNHYTQKSLSLSPG
chain 2: QSALTQPASVSGSPGQSITISCTGTSSDVGGYNFVSWYQQHPGKAPKLMIYDVSDRPSGVSDRFSGSKSGNTASLIISGLQADDEADYYCSSYGSSSTHVIFGGGTKVTVLGGGGSGGGGSGGGGSGGGGSQVQLQESGGGLVKPGGSLSLSCAASGFTFSSYWMSWVRQAPGKGLEWVANINRDGSASYYVDSVKGRFTISRDDAKNSLYLQMNSLRAEDTAVYYCARDRGVGYFDLWGRGTLVTVSSGGGGSGGGGSDVVMTQSPSTLSASVGDRVTINCQASESISSWLAWYQQKPGKAPKLLIYEASKLASGVPSRFSGSGSGTEFTLTISSLQPDDFATYYCQGYFYFISRTYVNSFGGGTKVEIKRTVAAPSVFIFPPSDEQLKSGTASVVCLLNNFYPREAKVQWKVDNALQSGNSQESVTEQDSKDSTYSLSSTLTLSKADYEKHKVYACEVTHQGLSSPVTKSFNRGECGGDKTHTCPPCPAPEAAGGPSVFLFPPKPKDTLMISRTPEVTCVVVDVSHEDPEVKFNWYVDGVEVHNAKTKPREEQYNSTYRVVSVLTVLHQDWLNGKEYKCAVSNKALPAPIEKTISKAKGQPREPQVYTLPPSRDELTKNQVSLWCLVKGFYPSDIAVEWESNGQPENNYKTTPPVLDSDGSFFLYSKLTVDKSRWQQGNVFSCSVMHEALHNRFTQKSLSLSPG
notes: bi-miniGNC; D2 αHER3, D3 αCD3 (Fab); also called bi-miniGNC (SI-75X2)
As for B2, the Kd was determined as 162 nM in experiment [1] and 27.8 nM in experiment [2].

B3: SI-75X1 (bispecific antibody, human IgG1, kappa, L234A L235A)
chain 1: EIVLTQSPSTLSVSPGERATFSCRASQSIGTNIHWYQQKPGKPPRLLIKYASESISGIPDRFSGSGSGTEFTLTISSVQSEDFAVYYCQQNNNWPTTFGPGTKLTVLGGGGSGGGGSGGGGSGGGGSQVQLQQSGPGLVKPSETLSITCTVSGFSLTNYGVHWIRQAPGKGLEWLGVIWSGGNTDYNTPFTSRFTITKDNSKNQVYFKLRSVRADDTAIYYCARALTYYDYEFAYWGQGTLVTVSSGGGGSGGGGSEVQLVESGGGLVQPGGSLRLSCAASGFTISTNAMSWVRQAPGKGLEWIGVITGRDITYYASWAKGRFTISRDNSKNTLYLQMNSLRAEDTAVYYCARDGGSSAITSNNIWGQGTLVTVSSASTKGPSVFPLAPSSKSTSGGTAALGCLVKDYFPEPVTVSWNSGALTSGVHTFPAVLQSSGLYSLSSVVTVPSSSLGTQTYICNVNHKPSNTKVDKRVEPKSCDKTHTCPPCPAPEAAGGPSVFLFPPKPKDTLMISRTPEVTCVVVDVSHEDPEVKFNWYVDGVEVHNAKTKPREEQYNSTYRVVSVLTVLHQDWLNGKEYKCAVSNKALPAPIEKTISKAKGQPREPQVYTLPPSRDELTKNQVSLSCAVKGFYPSDIAVEWESNGQPENNYKTTPPVLDSDGSFFLVSKLTVDKSRWQQGNVFSCSVMHEALHNHYTQKSLSLSPG
chain 2: DVVMTQSPSTLSASVGDRVTINCQASESISSWLAWYQQKPGKAPKLLIYEASKLASGVPSRFSGSGSGTEFTLTISSLQPDDFATYYCQGYFYFISRTYVNSFGGGTKVEIKRTVAAPSVFIFPPSDEQLKSGTASVVCLLNNFYPREAKVQWKVDNALQSGNSQESVTEQDSKDSTYSLSSTLTLSKADYEKHKVYACEVTHQGLSSPVTKSFNRGECGGDKTHTCPPCPAPEAAGGPSVFLFPPKPKDTLMISRTPEVTCVVVDVSHEDPEVKFNWYVDGVEVHNAKTKPREEQYNSTYRVVSVLTVLHQDWLNGKEYKCAVSNKALPAPIEKTISKAKGQPREPQVYTLPPSRDELTKNQVSLWCLVKGFYPSDIAVEWESNGQPENNYKTTPPVLDSDGSFFLYSKLTVDKSRWQQGNVFSCSVMHEALHNRFTQKSLSLSPG
notes: bi-miniGNC; D1 αEGFR, D3 αCD3 (Fab)
As for B3, the equilibrium dissociation constant (Kd) in experiment [2] was 24 nM; in experiment [3], 8.11 nM.

B4: SI-75X5 (bispecific antibody, human IgG1, kappa, L234A L235A)
chain 1: QVQLQESGGRLVQPGEPLSLTCKTSGIDLSSNAIGWVRQAPGKGLEWIGVIFGSGNTYYASWAKGRFTISRSTSTVYLKMNSLRSEDTAIYYCARGGYSSDIWGQGTLVTVSSASTKGPSVFPLAPSSKSTSGGTAALGCLVKDYFPEPVTVSWNSGALTSGVHTFPAVLQSSGLYSLSSVVTVPSSSLGTQTYICNVNHKPSNTKVDKRVEPKSCDKTHTCPPCPAPEAAGGPSVFLFPPKPKDTLMISRTPEVTCVVVDVSHEDPEVKFNWYVDGVEVHNAKTKPREEQYNSTYRVVSVLTVLHQDWLNGKEYKCAVSNKALPAPIEKTISKAKGQPREPQVYTLPPSRDELTKNQVSLSCAVKGFYPSDIAVEWESNGQPENNYKTTPPVLDSDGSFFLVSKLTVDKSRWQQGNVFSCSVMHEALHNHYTQKSLSLSPG
chain 2: QSALTQPASVSGSPGQSITISCTGTSSDVGGYNFVSWYQQHPGKAPKLMIYDVSDRPSGVSDRFSGSKSGNTASLIISGLQADDEADYYCSSYGSSSTHVIFGGGTKVTVLGGGGSGGGGSGGGGSGGGGSQVQLQESGGGLVKPGGSLSLSCAASGFTFSSYWMSWVRQAPGKGLEWVANINRDGSASYYVDSVKGRFTISRDDAKNSLYLQMNSLRAEDTAVYYCARDRGVGYFDLWGRGTLVTVSSGGGGSGGGGSDPQLTQSPSSLSATVGQRVTINCQSSQSVAKNNNLAWFQQKPGKPPKLLIYSASTLAAGVPSRFSGSGSGTQFTLTITRVQSEDFATYYCSARDSGNIQSFGGGTRVEIKRTVAAPSVFIFPPSDEQLKSGTASVVCLLNNFYPREAKVQWKVDNALQSGNSQESVTEQDSKDSTYSLSSTLTLSKADYEKHKVYACEVTHQGLSSPVTKSFNRGECGGDKTHTCPPCPAPEAAGGPSVFLFPPKPKDTLMISRTPEVTCVVVDVSHEDPEVKFNWYVDGVEVHNAKTKPREEQYNSTYRVVSVLTVLHQDWLNGKEYKCAVSNKALPAPIEKTISKAKGQPREPQVYTLPPSRDELTKNQVSLWCLVKGFYPSDIAVEWESNGQPENNYKTTPPVLDSDGSFFLYSKLTVDKSRWQQGNVFSCSVMHEALHNRFTQKSLSLSPG
notes: bi-miniGNC, IgG1; D2 αHER3, D3 αCD3* (Fab); Chain B carries H435R/Y436F (Fc) and R19S (VH of the αHER3 scFv)
As for B4, the values for the Kd in experiment [1] and in experiment [2] were 139 nM and 44.4 nM, respectively.

For the origin of these results see patent US20230114801A1 (SYSTIMMUNE, published 2023).
